Reference: patent US20230203467A1

How the values were obtained:
[1] = molecular target: VEGFR-1 on transfected endothelial cells (PAE/VEGFR-1) (UniProt P17948); test: cell-based or functional assay
[2] = molecular target: VEGFR-2 receptor on transfected endothelial cells (PAE/VEGFR-2) (UniProt P35968); test: cell-based or functional assay

Sequence of UniProt P17948 (P17948 27-1338 limits assumed): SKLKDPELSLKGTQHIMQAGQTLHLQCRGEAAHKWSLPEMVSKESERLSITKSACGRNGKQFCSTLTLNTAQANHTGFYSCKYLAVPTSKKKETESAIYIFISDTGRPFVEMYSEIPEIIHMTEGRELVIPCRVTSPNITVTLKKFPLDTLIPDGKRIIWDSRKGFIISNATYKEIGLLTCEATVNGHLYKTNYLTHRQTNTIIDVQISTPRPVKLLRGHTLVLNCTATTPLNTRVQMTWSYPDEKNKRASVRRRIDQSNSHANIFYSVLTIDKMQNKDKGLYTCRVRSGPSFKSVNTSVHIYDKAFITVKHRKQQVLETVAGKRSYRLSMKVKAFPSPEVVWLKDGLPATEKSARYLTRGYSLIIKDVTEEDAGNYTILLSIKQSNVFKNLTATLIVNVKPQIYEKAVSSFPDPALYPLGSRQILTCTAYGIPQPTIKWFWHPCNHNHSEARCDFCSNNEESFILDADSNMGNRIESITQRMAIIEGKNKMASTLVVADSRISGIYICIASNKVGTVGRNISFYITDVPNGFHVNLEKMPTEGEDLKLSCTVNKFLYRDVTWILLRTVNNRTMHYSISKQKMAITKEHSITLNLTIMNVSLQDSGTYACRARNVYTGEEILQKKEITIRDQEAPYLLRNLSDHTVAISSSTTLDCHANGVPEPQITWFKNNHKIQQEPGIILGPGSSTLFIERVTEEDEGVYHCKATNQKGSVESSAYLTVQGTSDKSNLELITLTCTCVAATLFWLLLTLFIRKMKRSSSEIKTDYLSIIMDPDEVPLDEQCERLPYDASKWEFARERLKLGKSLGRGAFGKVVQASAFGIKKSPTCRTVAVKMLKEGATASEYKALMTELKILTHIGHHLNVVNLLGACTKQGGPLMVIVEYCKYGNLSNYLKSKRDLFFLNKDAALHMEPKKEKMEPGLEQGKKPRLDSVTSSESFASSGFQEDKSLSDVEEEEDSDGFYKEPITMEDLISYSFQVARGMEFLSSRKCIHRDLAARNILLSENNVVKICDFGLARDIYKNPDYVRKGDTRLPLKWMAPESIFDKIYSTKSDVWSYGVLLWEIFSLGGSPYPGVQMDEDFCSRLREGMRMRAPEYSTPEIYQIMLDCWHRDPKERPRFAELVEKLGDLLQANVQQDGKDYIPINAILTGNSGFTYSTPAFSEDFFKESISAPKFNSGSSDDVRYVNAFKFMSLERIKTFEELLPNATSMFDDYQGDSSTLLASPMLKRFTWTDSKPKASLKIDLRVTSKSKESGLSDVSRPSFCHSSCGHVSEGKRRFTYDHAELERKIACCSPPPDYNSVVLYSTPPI

| Substance | IC50 (nM) on PEA/VEGFR-1 cells, construct pre-incubated in FBS (4 h) [1] [nM] | IC50 (nM) on PEA/VEGFR-1 cells, construct pre-incubated in PBS (4 h) [1] [nM] | IC50 (nM) on PEA/VEGFR-2 cells, construct pre-incubated in FBS (4 h) [2] [nM] | IC50 (nM) on PEA/VEGFR-2 cells, construct pre-incubated in PBS (4 h) [2] [nM] | IC50 nM, cytotoxicity on PAE/VEGFR-1 (-) control cells [1] [nM] | IC50 nM, cytotoxicity on PAE/VEGFR-2 (+) cells [2] [nM] |
| --- | --- | --- | --- | --- | --- | --- |
| LP-GrB/VEGF121 (from UniProt P15692 27-147) | > 100 | > 100 | 67 | 2 |  |  |
| EA-GrB/VEGF121 (from UniProt P15692 27-147) | > 100 | > 100 | 39 | 8 |  |  |
| LA-GrB/VEGF121 (from UniProt P15692 27-147) | > 100 | > 100 | 63 | 8 |  |  |
| EAPVPN-GrB/VEGF121 (from UniProt P15692 27-147) |  | > 100 |  | 5 |  |  |
| PVPN-GrB/VEGF121 (from UniProt P15692 27-147) |  | > 100 |  | 8 |  |  |
| GrB/VEGF121 (from UniProt P15692 27-147) | > 100 | > 100 | > 100 | 4 | > 1000 | 15.3 |
